The results in this text go back to PMC5750232, “RAD54 N-terminal domain is a DNA sensor that couples ATP hydrolysis with branch migration of Holliday junctions” (Nature Communications, 2018).

As usually defined, the stoichiometry N is the number of molecules, sites or subunits per partner or assembly.

Series [1] has as its target T1, RAD54 1-142 (NTD) (human, UniProt Q92698 1-142).
T1 sequence: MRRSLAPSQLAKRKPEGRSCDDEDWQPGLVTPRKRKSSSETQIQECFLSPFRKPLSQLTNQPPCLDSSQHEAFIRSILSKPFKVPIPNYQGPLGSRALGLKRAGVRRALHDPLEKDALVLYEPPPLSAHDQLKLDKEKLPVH
The series is described as follows: competition EMSA. Particulars: vs 30 nM 32P-PX junction, 300 nM protein, 5 mM Mg2+, 2 mM ATP, 25 mM Tris-acetate pH 7.5, 5 mM Mg acetate, 100 ug/ml BSA, 2 mM DTT, 10% glycerol, 4 C, 45 min, 30 nM PX junction, 6% native PAGE in 0.25x TBE, scale: fold excess, PX complexes stable at 150-200-fold excess of ss- or dsDNA. Background: A gel shift assay detects complexes by their altered migration in electrophoresis.

Series [2] concerns the target T2, RAD54 156-747 (human, UniProt Q92698 156-747).
T2 sequence: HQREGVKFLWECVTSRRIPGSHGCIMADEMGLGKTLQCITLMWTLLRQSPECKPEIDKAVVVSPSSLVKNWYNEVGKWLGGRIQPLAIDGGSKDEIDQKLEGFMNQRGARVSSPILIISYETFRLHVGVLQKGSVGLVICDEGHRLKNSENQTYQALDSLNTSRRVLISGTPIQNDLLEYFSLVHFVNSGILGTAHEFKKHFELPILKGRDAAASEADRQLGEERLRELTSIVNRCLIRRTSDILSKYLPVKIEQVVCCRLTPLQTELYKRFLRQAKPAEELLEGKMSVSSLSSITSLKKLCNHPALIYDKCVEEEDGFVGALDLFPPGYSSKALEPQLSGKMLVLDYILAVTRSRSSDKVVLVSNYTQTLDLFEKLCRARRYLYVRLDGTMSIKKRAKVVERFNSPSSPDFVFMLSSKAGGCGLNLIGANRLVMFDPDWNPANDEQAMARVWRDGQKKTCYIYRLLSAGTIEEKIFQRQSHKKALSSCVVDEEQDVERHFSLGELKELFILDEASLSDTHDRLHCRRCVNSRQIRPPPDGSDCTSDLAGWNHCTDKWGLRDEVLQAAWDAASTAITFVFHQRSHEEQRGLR
The series is described as follows: competition EMSA. Particulars: vs 30 nM 32P-PX junction, 100 nM protein, 5 mM Mg2+, 2 mM ATP, 25 mM Tris-acetate pH 7.5, 5 mM Mg acetate, 100 ug/ml BSA, 2 mM DTT, 10% glycerol, 4 C, 45 min, 30 nM PX junction, 6% native PAGE in 0.25x TBE, scale: fold excess of competitor giving 50% dissociation of PX complexes.

Series [3] deals with the molecule itself. The series can be described thus: cross-linking; BMH (25 µM) cross-linking of the protein (1.2 µM) without DNA; 20 mM HEPES-KOH pH 7.5, 5 mM MgCl2, 5 mM EDTA, 40 mM KCl, 25 °C; 15% SDS-PAGE, silver staining.
The target in series [4] is T1, RAD54 1-142 (NTD). The series is described as follows: competition EMSA; vs 30 nM 32P-PX junction; 300 nM protein; 5 mM Mg2+, 2 mM ATP; 25 mM Tris-acetate pH 7.5, 5 mM Mg acetate, 100 ug/ml BSA, 2 mM DTT, 2 mM ATP, 10% glycerol, 4 C, 45 min; 30 nM PX junction; 6% native PAGE in 0.25x TBE. Particulars: protein: recombinant; tags: Sumo-His, cleaved; four-way junction, 4 strands.

The target of series [5] is T2, RAD54 156-747. The series is described as follows: EMSA; 100 nM protein; 5 mM Mg2+, 2 mM ATP; 25 mM Tris-acetate pH 7.5, 5 mM Mg acetate, 100 ug/ml BSA, 2 mM DTT, 2 mM ATP, 10% glycerol, 4 C, 45 min; 30 nM PX junction; 6% native PAGE in 0.25x TBE. Particulars: protein: recombinant; tags: Sumo-His, cleaved; partial X junction with one ssDNA arm, 4 strands.
Series [6] has as its target T1, RAD54 1-142 (NTD). The series can be described thus: EMSA; distinct complexes from 0.1 uM protein; 5 mM Mg2+, 2 mM ATP; 25 mM Tris-acetate pH 7.5, 5 mM Mg acetate, 100 ug/ml BSA, 2 mM DTT, 2 mM ATP, 10% glycerol, 4 C, 45 min; 30 nM PX junction; 6% native PAGE in 0.25x TBE. Particulars: protein: recombinant; tags: Sumo-His, cleaved; partial X junction with one ssDNA arm, 4 strands.

Take ssDNA (oligo 2): the binding signal was over 150 with RAD54 1-142 (NTD) [1] and 4 with RAD54 156-747 [2].

dsDNA (oligos 1/2) gave a binding signal with RAD54 1-142 (NTD) [1] of over 150.

B1: RAD54_(1–142) NTD (domain or fragment, human, UniProt Q92698 1-142, looked up)
chain: MRRSLAPSQLAKRKPEGRSCDDEDWQPGLVTPRKRKSSSETQIQECFLSPFRKPLSQLTNQPPCLDSSQHEAFIRSILSKPFKVPIPNYQGPLGSRALGLKRAGVRRALHDPLEKDALVLYEPPPLSAHDQLKLDKEKLPVH
notes: cloned in pETHSUL; Sumo-His tag cleaved off by Sumo hydrolase; also called RAD54 NTD; source: E. coli Rosetta 2 (DE3), purified (HiTrap Ni2+, Sephacryl S-200 HR, Resource S)
Regarding B1, in series [3], the “stoichiometry N” value came to 2.

B2: RAD54_(1–142) ^33AAAA36 (domain or fragment, human, UniProt Q92698 1-142, looked up)
chain: MRRSLAPSQLAKRKPEGRSCDDEDWQPGLVTPAAAASSSETQIQECFLSPFRKPLSQLTNQPPCLDSSQHEAFIRSILSKPFKVPIPNYQGPLGSRALGLKRAGVRRALHDPLEKDALVLYEPPPLSAHDQLKLDKEKLPVH
notes: source: E. coli Rosetta 2 (DE3), purified (HiTrap Ni2+, Sephacryl S-200 HR, Resource S)
As for B2, in series [3], the “stoichiometry N” value was determined as 2.

B3: RAD54_(1–142) ^S49E (domain or fragment, human, UniProt Q92698 1-142, looked up)
chain: MRRSLAPSQLAKRKPEGRSCDDEDWQPGLVTPRKRKSSSETQIQECFLEPFRKPLSQLTNQPPCLDSSQHEAFIRSILSKPFKVPIPNYQGPLGSRALGLKRAGVRRALHDPLEKDALVLYEPPPLSAHDQLKLDKEKLPVH
notes: as for B2
For B3, the “stoichiometry N” value in series [3] was 2.

B4: X-junction (174/175/176/177) (structured_DNA)
DNA 1: GACGCTGCCGAATTCTACCAGTGCCTTGCTAGGACATCTTTGCCCACCTGCAGGTTCACCC
DNA 2: TGGGTGAACCTGCAGGTGGGCAAAGATGTCCTAGCAATGTAATCGTCAAGCTTTATGCCGTT
DNA 3: CAACGGCATAAAGCTTGACGATTACATTGCTAGGACATGCTGTCTAGAGGATCCGACTATCGA
DNA 4: ATCGATAGTCGGATCCTCTAGACAGCATGTCCTAGCAAGGCACTGGTAGAATTCGGCAGCGT
Consider B4, for which, in the series with RAD54 1-142 (NTD) [4], the binding signal is ~6 fold preference for PX junction over HJ (X-junction).

B5: non-mobile PX junction (174/175/176/181) (structured_DNA)
DNA 1: GACGCTGCCGAATTCTACCAGTGCCTTGCTAGGACATCTTTGCCCACCTGCAGGTTCACCC
DNA 2: TGGGTGAACCTGCAGGTGGGCAAAGATGTCCTAGCAATGTAATCGTCAAGCTTTATGCCGTT
DNA 3: CAACGGCATAAAGCTTGACGATTACATTGCTAGGACATGCTGTCTAGAGGATCCGACTATCGA
DNA 4: TCGATAGTCGGATCCTCTAGACAGC
Take B5: the binding result with RAD54 156-747 [5] and in the series with RAD54 1-142 (NTD) [6] was “binds” throughout.
